“And” between values parts separate entries of the source, which are not always exact repeats. Equal values may be shown once. Values belong to the binder of their own block, whether it stands above or below them.
Columns and labels:
人TNFα [1] = target: T1, 人TNFα (human, UniProt P01375 77-233); assay: ELISA, plate coated at 0.1 ug/well, antibody dilution series
T1 construct: also called 人TNFa; hTNFa

人TNFα [2] = target: T1, 人TNFα; assay: cell-based or functional assay
人TNFα [3] = target: T1, 人TNFα; assay: SPR (Biacore), TNFa coupled to the chip, antibody as analyte
人TNFα [4] = target: T1, 人TNFα; assay: cell-based or functional assay; remark: listed apart in the source

T1 sequence (P01375 77-233 limits assumed): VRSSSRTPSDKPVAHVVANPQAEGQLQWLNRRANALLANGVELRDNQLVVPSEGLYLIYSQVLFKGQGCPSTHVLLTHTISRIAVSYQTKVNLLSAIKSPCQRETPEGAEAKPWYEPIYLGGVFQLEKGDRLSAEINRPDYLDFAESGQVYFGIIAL

- lowest detected concentration relative to humira (人TNFα [1]): 0.5 fold of humira
- IC50 relative to humira, L929细胞保护试验 (人TNFα [2]): ~0.2 fold of humira IC50
- neutralising activity relative to humira, L929细胞保护试验 (人TNFα [2]): ~5 fold of humira
- Kd (人TNFα [3]): 326 pM
- koff (人TNFα [3]): 0.000185 s⁻¹
- kon (人TNFα [3]): 568000 M⁻¹ s⁻¹
- IC50(pM), L929细胞保护试验 (人TNFα [4]): 0.56 pM and 0.938 pM and 0.46 pM
- IC50(pM), L929细胞保护试验, 平均值 (人TNFα [4]): 0.51 pM
B1: 抗人TNFa抗体-01 (antibody, human IgG1, kappa)
heavy: not shown
light: EIVLTQSPDFQSVTPKEKVTITCRASQFVGYSIHWYQQKPDQSPKLLIKYASESRSGVPSRFSGSGSGTDFTLTINSLEAEDAATYYCQQSHSWHFTFGQGTKLEIKRTVAAPSVFIFPPSDEQLKSGTASVVCLLNNFYPREAKVQWKVDNALQSGNSQESVTEQDSKDSTYSLSSTLTLSKADYEKHKVYACEVTHQGLSSPVTKSFNRGEC
notes: also called 抗人TNFa-01; pCI-TNF-01

- lowest detected concentration relative to humira (人TNFα [1]): 0.5 fold of humira
- IC50 relative to humira, L929细胞保护试验 (人TNFα [2]): ~0.1 fold of humira IC50
- neutralising activity relative to humira, L929细胞保护试验 (人TNFα [2]): ~10 fold of humira
- Kd (人TNFα [3]): 330 pM
- koff (人TNFα [3]): 0.000188 s⁻¹
- kon (人TNFα [3]): 571000 M⁻¹ s⁻¹
- IC50(pM), L929细胞保护试验 (人TNFα [4]): 0.34 pM and 0.25 pM and 0.234 pM
- IC50(pM), L929细胞保护试验, 平均值 (人TNFα [4]): 0.275 pM
B2: 抗人TNFa抗体-02 (antibody, human IgG1, kappa)
heavy: not shown
light: B1 light
notes: Full-length human IgG1 made in CHO cells; Same doubt about plain or PEGylated form as for m1; also called 抗人TNFa-02; pCI-TNF-02

Source: patent CN102127167A (SUZHOU IND PARK CHENJIAN ANTIBODY GROUP PHARMACEUTICAL DEV …, dated 2011)
